Patent publication US20160068605A1 (Janssen / Centocor, published 2016)

Key:
[1] = molecular target: T1, cell-surface CD3 epsilon on primary cynomolgus T cells (cynomolgus monkey, UniProt Q95LI5 22-198); experiment: flow cytometry competition with labeled CD3B146 on T cells
T1 construct: whole, on cells; also called cynomolgus CD3e; Cyno T-cells
Source text: (§1) The format involved competition binding using a fixed concentration of labeled anti-CD3 mAb of known affinity and increasing concentrations of unlabeled test Abs (Ashkenazi A et al. PNAS: 88:10535, 1991.).

[2] = molecular target: T2, cell-surface CD3 epsilon on primary human T cells (human, UniProt P07766 23-207); experiment: as above
T2 construct: whole, on cells; part of the CD3/TCR complex on the cells
Source text: as §1

[3] = molecular target: T2, cell-surface CD3 epsilon on primary …; experiment: competition flow cytometry on primary human T cells (Human Donor 10357); competitor displaced: Alexa Fluor 488-labelled CD3B146
Source text: as §1

[4] = molecular target: T3, Recombinant human CD123 SP1 ECD-His tag protein (human, UniProt P26951 20-305); experiment: SPR Biacore T200, captured antibody
T3 construct: bought from R&D Systems (#301-R3/CF); biotinylated for some assays; also called rhCD123 SP1; huCD123 ECD SP1
T3 sequence: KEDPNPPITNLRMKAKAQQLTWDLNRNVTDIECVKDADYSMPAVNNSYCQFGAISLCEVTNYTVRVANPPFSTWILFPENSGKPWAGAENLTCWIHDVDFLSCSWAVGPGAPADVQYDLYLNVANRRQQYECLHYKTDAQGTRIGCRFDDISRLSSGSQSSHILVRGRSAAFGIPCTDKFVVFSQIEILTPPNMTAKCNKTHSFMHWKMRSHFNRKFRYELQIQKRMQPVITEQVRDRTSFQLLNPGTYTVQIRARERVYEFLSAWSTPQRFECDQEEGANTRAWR
Method: (§2) Kinetic studies were performed at 25° C. using a Biacore T200 (Biacore, Inc., now part of GE Healthcare). […] The carboxymethyl groups of dextran were activated with N-Ethyl-N′-(3-Dimethylaminopropyl)carbodiimide (EDC) and N-hydroxysuccinimide (NHS). The anti-Fc antibody was coupled at pH 4.5 in 10 mM sodium acetate. Any remaining reactive sites on the surface were blocked by reaction with ethanolamine. […] 40-70 RU of antibody were captured. […] Association data was collected for 2 min followed by 10 min of dissociation. The surface was regenerated with 30 μL of 100 mM H3PO4 100 μL/min, followed by 50 mM NaOH. The samples for kinetic analysis were prepared in PBS-based buffer (D-PBS containing 3 mM EDTA and 0.005% surfactant P20). Data reported is the difference in SPR signal between the flow cell containing the captured antibody and a reference cell without captured antibody. Additional instrumental contributions to the signal were removed by subtraction of the data from the blank injection from the reference-subtracted signal. Data were analyzed by fitting association and dissociation phases at all concentrations (global fit) with a 1:1 binding model using the BIAevaluation software (BIAcore, Inc.).

[5] = molecular target: T4, Recombinant human CD123 SP2 ECD protein (human, UniProt P26951 101-303); experiment: SPR Biacore T200, captured antibody
T4 construct: also called rhCD123 SP2; CD123 ECD SP2
T4 sequence: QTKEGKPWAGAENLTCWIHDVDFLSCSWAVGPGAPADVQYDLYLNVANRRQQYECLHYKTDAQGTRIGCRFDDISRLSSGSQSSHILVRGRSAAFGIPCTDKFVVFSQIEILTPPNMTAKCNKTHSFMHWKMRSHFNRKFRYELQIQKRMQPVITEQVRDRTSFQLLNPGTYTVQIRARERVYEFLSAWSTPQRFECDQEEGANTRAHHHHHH
Method: as §2

[6] = molecular target: T5, human CD123 SP1 ECD displayed on pDisplay-transfected cells (human, UniProt P26951 20-305); experiment: MSD-CAT on pDisplay cells
T5 construct: ECD anchored on the surface of stably transfected HEK293 cells by the PDGFR transmembrane domain; also called hCD123 SP1 cells; hCD123 cells
T5 sequence: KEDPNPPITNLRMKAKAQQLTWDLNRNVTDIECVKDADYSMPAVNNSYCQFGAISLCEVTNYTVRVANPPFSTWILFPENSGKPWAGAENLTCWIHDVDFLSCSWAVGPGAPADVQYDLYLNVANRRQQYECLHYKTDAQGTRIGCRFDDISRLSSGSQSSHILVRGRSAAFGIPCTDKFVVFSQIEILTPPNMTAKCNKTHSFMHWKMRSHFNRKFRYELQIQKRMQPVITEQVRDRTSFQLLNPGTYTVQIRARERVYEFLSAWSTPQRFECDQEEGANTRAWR
Method: (§3) The MSD-CAT was developed in-house as a label-free method to determine affinity using intact cells in a high throughput format. […] Cell lines used were human pDisplay CD123SP1 and pDisplay CD123SP2. […] These samples were prepared in DMEM Glutamax medium containing 0.05% Azide, 1% BSA, 3 mM EDTA. […] After equilibration the plate was centrifuged for 5 minutes ˜1000 rpm and free anti-CD3 detected on the supernatant. […] The assay buffer was removed without washing and 50 uL/well of 0.7 ug/mL of biotinylated antigen in assay buffer were added to MSD plates and incubated overnight (˜16 hours at 4° C.).

[7] = molecular target: T6, human CD123 SP2 ECD displayed on pDisplay-transfected cells (human, UniProt P26951 101-305); experiment: MSD-CAT on pDisplay cells
T6 construct: ECD anchored on the surface of stably transfected HEK293 cells; also called hCD123 SP2 cells; pDisplay CD123SP2
T6 sequence: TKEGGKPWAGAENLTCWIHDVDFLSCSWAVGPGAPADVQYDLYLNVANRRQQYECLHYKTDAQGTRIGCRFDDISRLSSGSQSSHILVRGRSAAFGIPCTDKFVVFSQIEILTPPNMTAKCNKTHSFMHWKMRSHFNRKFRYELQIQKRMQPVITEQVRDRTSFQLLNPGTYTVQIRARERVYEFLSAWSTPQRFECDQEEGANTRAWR
Method: as §3

[8] = molecular target: T3, Recombinant human CD123 SP1 ECD-His tag …; experiment: SPR Biacore 3000, captured mAb
Method: (§4) Kinetic studies were performed at 25° C. using a Biacore 3000 (BIAcore, Inc., now part of GE Healthcare). […] Sheep anti-Human Fd specific antibody (The binding site Prod # PC075) was covalently attached to two flow cells (normally 3 and 4) of the carboxymethyl dextran coated gold surfaces (CM-5 Chip, Biacore). The carboxymethyl groups of dextran were activated with N-Ethyl-N′-(3-Dimethylaminopropyl)carbodiimide (EDC) and N-hydroxysuccinimide (NHS). The antibodies were coupled at pH 4.5 in 10 mM sodium acetate. Any remaining reactive sites on the surface were blocked by reaction with ethanolamine. […] Association data was collected for 2 min followed by 10 min of dissociation. The surface was regenerated with 30 μL of 100 mM H3PO4 100 μL/min. All samples were prepared in D-PBS containing 3 mM EDTA and 0.005% surfactant P20. Data reported is the difference in SPR signal between the flow cell containing the captured antibody or Fab and a reference cell without captured antibody or Fab. Additional instrumental contributions to the signal were removed by subtraction of the data from the blank injection from the reference-subtracted signal. Data were performed in triplicate and analyzed by fitting association and dissociation phases at all concentrations (global fit) with a 1:1 binding model using the BIAevaluation software (BIAcore, Inc.). […] Data presented is an average.

[9] = molecular target: T4, Recombinant human CD123 SP2 ECD protein; experiment: SPR Biacore 3000, captured mAb
Method: as §4

[10] = molecular target: T3, Recombinant human CD123 SP1 ECD-His tag …; experiment: SPR ProteOn, captured mAb
[11] = molecular target: T4, Recombinant human CD123 SP2 ECD protein; experiment: SPR ProteOn, captured mAb

T2 sequence (P07766 23-207): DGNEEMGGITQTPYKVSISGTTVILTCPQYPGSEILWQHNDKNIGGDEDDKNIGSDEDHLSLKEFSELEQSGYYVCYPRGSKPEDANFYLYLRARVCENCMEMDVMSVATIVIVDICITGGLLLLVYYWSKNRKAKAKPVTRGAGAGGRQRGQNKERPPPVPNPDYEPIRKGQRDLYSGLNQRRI
T1 sequence (Q95LI5 22-198): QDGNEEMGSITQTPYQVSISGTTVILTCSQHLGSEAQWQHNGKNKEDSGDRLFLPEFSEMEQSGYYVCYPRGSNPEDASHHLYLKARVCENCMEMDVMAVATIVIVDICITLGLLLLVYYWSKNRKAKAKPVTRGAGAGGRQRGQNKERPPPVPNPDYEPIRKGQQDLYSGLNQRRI

B1: bispecific antibody Ab 8747 (bispecific antibody, human IgG4 S228P, kappa, lambda, F234A L235A)
heavy 1: EVQLVESGGGLVQPGGSLRLSCAASGFTFNTYAMNWVRQAPGKGLEWVARIRSKYNNYATYYAASVKGRFTISRDDSKNSLYLQMNSLKTEDTAVYYCARHGNFGNSYVSWFAYWGQGTLVTVSSASTKGPSVFPLAPCSRSTSESTAALGCLVKDYFPEPVTVSWNSGALTSGVHTFPAVLQSSGLYSLSSVVTVPSSSLGTKTYTCNVDHKPSNTKVDKRVESKYGPPCPPCPAPEAAGGPSVFLFPPKPKDTLMISRTPEVTCVVVDVSQEDPEVQFNWYVDGVEVHNAKTKPREEQFNSTYRVVSVLTVLHQDWLNGKEYKCKVSNKGLPSSIEKTISKAKGQPREPQVYTLPPSQEEMTKNQVSLTCLVKGFYPSDIAVEWESNGQPENNYKTTPPVLDSDGSFLLYSKLTVDKSRWQEGNVFSCSVMHEALHNHYTQKSLSLSLGK
light 1: QTVVTQEPSLTVSPGGTVTLTCRSSTGAVTTSNYANWVQQKPGQAPRGLIGGTNKRAPGTPARFSGSLLGGKAALTLSGVQPEDEAEYYCALWYSNLWVFGGGTKLTVLGQPKAAPSVTLFPPSSEELQANKATLVCLISDFYPGAVTVAWKADSSPVKAGVETTTPSKQSNNKYAASSYLSLTPEQWKSHRSYSCQVTHEGSTVEKTVAPTECS
heavy 2: not shown
light 2: not shown
**Q.** For B1, which Kd [1] is on record?
**A.** 9.5 nM

**Q.** And the Kd [2]?
**A.** 9.6 nM

**Q.** What about the “IC50 (read off the curve)” value [3] of the same binder?
**A.** ~20 nM

**Q.** What about the Kd [4] of the same binder?
**A.** 14.3 nM

**Q.** And the koff [4]?
**A.** 0.0048 s⁻¹

**Q.** What about the kon [4] of the same binder?
**A.** 337000 M⁻¹ s⁻¹

**Q.** What about the Kd [5] of the same binder?
**A.** 1.63 nM

**Q.** What about the koff [5] of the same binder?
**A.** 0.0052 s⁻¹

**Q.** What about the kon [5] of the same binder?
**A.** 3.19e+06 M⁻¹ s⁻¹

**Q.** What about the Kd [6] of the same binder?
**A.** 1.76 nM

**Q.** And the Kd [7]?
**A.** 2.21 nM

B2: I3RB2 (antibody, IgG1, V domains shown)
VH: EVQLLESGGGLVQPGGSLRLSCAASGFTFSGYWMHWVRQAPGKGLEWVSAIRSDGSSKYYADSVKGRFTISRDNSKNTLYLQMNSLRAEDTAVYYCAKDGVIEDTFDYWGQGTLVTVSS
VL: EIVLTQSPATLSLSPGERATLSCRASQSVSSYLAWYQQKPGQAPRLLIYDASNRATGIPARFSGSGSGTDFTLTISSLEPEDFAVYYCQQRSNWPLTFGQGTKVEIK
notes: IgG1; also called I3RB02; 13RB2
**Q.** B2 was tested. Which Kd [7] did it give?
**A.** 0.036 nM

**Q.** What about the Kd [8] of the same binder?
**A.** 7.7 nM

**Q.** What about the koff [8] of the same binder?
**A.** 0.00372 s⁻¹

**Q.** And the kon [8]?
**A.** 481000 M⁻¹ s⁻¹

**Q.** And the Kd [9]?
**A.** 1.4 nM

**Q.** And the Kd [10]?
**A.** 4.5 nM

**Q.** What about the koff [10] of the same binder?
**A.** 0.00477 s⁻¹

**Q.** And the kon [10]?
**A.** 1.06e+06 M⁻¹ s⁻¹

**Q.** And the Kd [11]?
**A.** 1.85 nM

**Q.** And the koff [11]?
**A.** 0.00335 s⁻¹

**Q.** What about the kon [11] of the same binder?
**A.** 1.81e+06 M⁻¹ s⁻¹
